This is an account of results in article PMC4222082, “Nitrogen starvation-induced transcriptome alterations and influence of transcription regulator mutants in Mycobacterium smegmatis”.

Series [1] addresses T1, MBP-GlnR (Mycobacterium smegmatis (SMR5?)) (UniProt A0R4C4).
T1 sequence: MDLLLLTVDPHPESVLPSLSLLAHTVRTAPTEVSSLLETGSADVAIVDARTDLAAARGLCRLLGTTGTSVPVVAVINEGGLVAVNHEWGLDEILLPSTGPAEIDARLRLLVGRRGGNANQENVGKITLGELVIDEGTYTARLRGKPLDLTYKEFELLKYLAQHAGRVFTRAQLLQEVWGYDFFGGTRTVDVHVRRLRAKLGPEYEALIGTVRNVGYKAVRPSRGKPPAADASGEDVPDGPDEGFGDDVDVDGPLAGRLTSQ
Nature of the series: EMSA. The following applies: GlnR: DIG Gel Shift Kit (Roche) buffer, 6% native PAGE, 0.5x TBE; AmtR: 20 mM Tris-HCl pH 7.9, 25 mM KCl, 1 mM DTT, 5 mM MgCl2, 0.5 mg/ml BSA, 5% glycerol …. On the technique in general: Mobility shift assays separate free from complexed probe on a gel.

Series [2] deals with T2, MBP-GlnR (Mycobacterium smegmatis, UniProt A0R4C4 1-261).
T2 sequence: T1 sequence
The series can be described thus: competition; 1000-fold excess vs fragment 6 probe; GlnR: DIG Gel Shift Kit (Roche) buffer, 6% native PAGE, 0.5x TBE; AmtR: 20 mM Tris-HCl pH 7.9, 25 mM KCl, 1 mM DTT, 5 mM MgCl2, 0.5 mg/ml BSA, 5% glycerol, 2 ug sperm DNA, 25 C 30 min. The conditions noted are these: protein: recombinant; (pMal-c2-glnR); chain copies: 2.

Series [3] has as its target T2, MBP-GlnR. The series can be described thus: competition; 1000-fold excess vs 220 bp amtB probe; GlnR: DIG Gel Shift Kit (Roche) buffer, 6% native PAGE, 0.5x TBE; AmtR: 20 mM Tris-HCl pH 7.9, 25 mM KCl, 1 mM DTT, 5 mM MgCl2, 0.5 mg/ml BSA, 5% glycerol, 2 ug sperm DNA, 25 C 30 min. The conditions noted are these: protein: recombinant; (pMal-c2-glnR); chain copies: 2; label: digoxigenin when used as probe.

For “GTGGCGCGGCAGGGCGGCCACGGGCAGGCCCTGCTGGTCTTCGACACCGGTGACGGCCGCACGCTGCAGACCCATCCGCTTCCCGAGGCCACCGGCTGGCCGGTCGGGGTATCGATCGGCCACGACGGCCGCGTGGTCACCGCGACGAGTGACGGGCAAGTGTATGGCTTCTCACCGGCATGATGCCGGAAGTTTTACAGGGAATTGACGAAATCTCCACAGAAAGTGGTGGGCTTCGTGTGAGGATTTGGCGCGGCAACCGTGCAAGATCAATGAATTTCTGGGGGAAGGCAATAACCA (double strand) [msmeg_1052 upstream]”, the binding result in series [1] was “no binding”.
On the same count and under the same terms, then “GTGTGAACCTCCTTGGGAAGTGCGCCGACGGATCGGCCTCCCGATGAGATTCTGTTGCCGGCGTTTCGCCGGTGCTGCCGTTGCGTTTCCGGAAAGTGAACGCAATCCCGATCACTGTTACGCTCATGTTTCCCGCCGACAAAGCACAGGTCGTTGCACAGCCAACGCCGGCTGTAACGCCCCGCAAACACTCCCGCTGCGGCGCCGCGAACCCGACGTC (double strand) [amtB upstream]”, with “binds”; and “TGAGGGTCCTAATCCGTCCCTGAACAGGGAAATTACCGGACCATTTTTTGGTCTGGTCTGAGAATGTCGCCGACGACGTTGTGCTGCGACGCTGGCAATTGTTACCGCGCCCAGATTCGTTGGTCAACTTGGAATTACCTGTACATATGCGGGTTTGTTGCAAACATGTTTCGAAGCTGGGAGCCATGCAACGGCAGCGTAAAAATTCTCGATTTGGTCTGCTCTGGTTCGGCTTTTGGTCCACACTCTTCGACATGCCGGGACTTCCAGCTGACCACGAACTGTTCGCGCGCGCCGCAC (double strand) [msmeg_0781 upstream]”, with “binds”; and “TGCAGTATCACTACTTTCTTGTTATCCACTTGTCAGGCGTTCGCGGTCTCTGGAGTTTGCTGTGAGGTTTCCTTGAGCCCGAGGCGGGCCCGGATGACGAGGCCGATGACGAACAGTGCCGCGGTGACGATGAACGGCGCCCAGTCGACCCACGGGTCGCCCGTGCGGGGCCACAGGACGTTGACGGTCTCCACGATCACCCACACCAGCGCGAGCCACCCCGCAACGTGTCCGGCACGGCCCAGGAAGGTCGGTTCGGTGGGGTCCCAGGTGCCCCGGAGCTTGCTGATCGCCAACCCC (double strand) [msmeg_6734 upstream]”, with “no binding”.
Regarding “TTCGGTGTACCTGTGGAAGAACACCGTGGAGAAGGCACAGTCCTTCGACGTCAAGGCAATTCAGGACAACGCCGATGGCGTGAGCTTCGACGCGCCCGAGGGCAAGGTCACCATCGACGGCGAGAACCACCACATCACCAAGACCGCCCGCATCGGTGAGATCCGCCCCGACGGCCTGATCTACACGGTGTGGGAGTCCAAGGGCCCCATCGAGCCGGATCCGTACCTGAAGTCCTACCCGTGGGCCGCAGGGCTGTCGAGCTGATCAGATAGTCACACCGAGGGGGATCTGACAACCGT (double strand) [msmeg_2981 upstream]”, the binding result in series [1] is “no binding”.

B1: amtB fragment 6.1 (dsDNA)
DNA 1: TGCGTTCACTTTCCGGAAACGCAAC
DNA 2: GTTGCGTTTCCGGAAAGTGAACGCA
Consider B1, for which the binding result with MBP-GlnR [2] is “binds”.

B2: amtB fragment 6 (dsDNA)
DNA 1: TGCGTTCACTTTCCGGAAACGCAACGGCAGCACCGGCGAAACGCCGGCAA
DNA 2: TTGCCGGCGTTTCGCCGGTGCTGCCGTTGCGTTTCCGGAAAGTGAACGCA
For the molecule B2, the binding result with MBP-GlnR [3] is listed as “binds”.
